From patent US20260035452A1 (THE UNIVERSITY OF BIRMINGHAM, priority 2022, published 2026)

System: dorsal air pouch of mice
Experiment: In vivo air pouch model
Settings: 1 μg/mice into air pouch, 24 h
Method: FIG. 3: Mice were treated with IL-17 vehicle (Ctrl), IL-17 (1 μg/mice) alone (IL-17) or peptide (FM-0410) (1 μg/mice) and thereafter total cell number from pouches inflammatory exudates was evaluated at 24 h. Data were expressed as millions of cells for pouch and presented as means±S.D. of n=7 mice per group. Statistical analysis was conducted by one-way ANOVA followed by Bonferroni's for multiple comparisons. ^##P≤0.01, ^###P≤0.005 vs Ctrl group; *P≤0.05 vs IL-17 group.
FIG. 4: Inflammatory supernatants obtained from the pouch cavities were assayed using a Proteome Profiler Cytokine Array for Ctrl, IL-17 and FM-0410 experimental group. Densitometric analysis is presented as heatmap. Data (expressed as INT/mm2) are presented as means±S.D. of positive spots of three independent experiments run each with n=7 mice per group.
FIG. 5: Mice were treated with IL-17 vehicle (Ctrl), IL-17 (1 μg/mice), or peptide (FM-0410) (1 μg/mice) and inflammatory fluids were assayed by Elisa for IL-6. Data were expressed as pg/ml and presented as means±S.D. of n=7 mice per group. Statistical analysis was conducted by one-way ANOVA followed by Bonferroni's for multiple comparisons. ^##P≤0.01 vs CTRL group. […]
Specifically, dorsal air pouches were prepared by injection of 2.5 ml of air on day 0 and day 3 as previously described (Maione et al., 2009). […] Inflammatory exudates were collected and measured to evaluate the level of inflammatory cyto-chemokines. Cell number was determined by TC20 automated cell counter (Bio-Rad, Milan, Italy) using Bio-Rad's TC20 automated cell counter uses disposable slides, TC20 trypan blue dye (0.4% trypan blue dye w/v in 0.81% sodium chloride and 0.06% potassium phosphate dibasic solution) and a CCD camera to count cells based on the analyses of capture images (Maione et al., 2018).
Methods: The levels of IL-6 in the cellular and air pouch inflammatory supernatants at 24 h were measured using commercially available enzyme-linked immunosorbent assay kit (ELISA kit, R&D System, Milan, Italy) according to the manufacturer instructions. […]

B1: IL-17: recombinant mouse IL-17 purchased from R&D System; full-length cytokine used as comparator and stimulus (protein, UniProt Q62386 26-158, looked up)
Interleukin-17A: AAIIPQSSACPNTEAKDFLQNVKVNLKVFNSLGAKVSSRRPSDYLNRSTSPWTLHRNEDPDRYPSVIWEAQCRHQRCVNAEGKLDHHMNSVLIQQEILVLKREPESCPFTFRVEKMLVGVGCTCVASIVRQAA
- cyto-chemokines profile of pouch fluid (Proteome Profiler Cytokine Array): significant increase of cyto-chemokines profile compared to ctrl group
- level of IL-6 in pouch fluids: increased level of IL-6 compared to control group
- number of inflammatory leukocytes (total cell number from pouch exudates): significant differences in the number of inflammatory leukocytes compared to control group
